Measured values published in US20250090523A1, “PHARMACEUTICAL COMPOSITION OR DRUG KIT FOR ALLEVIATING OR TREATING FIBROTIC DISEASES, AND USE THEREOF” (SHANGHAI SYNVIDA BIOTECHNOLOGY CO. LTD., priority 2021, published 2025).

System: IPF fibroblasts
Test: qPCR of extracellular matrix genes collagen 7a1 and matrix metalloproteinase inhibitor 1 in TGFβ-induced IPF fibroblasts
Format: cell-based, human
Conditions: Example 3, FIG. 4-6, TGFβ-induced IPF fibroblasts treated 48 hours, 18sRNA reference
From the text: IPF fibroblasts of patients were purchased from the ATCC cell library.
IPF fibroblasts in Method 2 were collected. Total mRNA was extracted by Trizol method (Invitrogen, Carlsbad, CA) according to standard protocols. Complementary DNA was synthesized using reverse transcriptase (Takara). ABI7000 Real-time PCR instrument (Life Technologies) was used to detect gene expression and the PCR primer sequences are shown in Table 1. The 18sRNA gene was used as an internal reference.
Experimental groups including anti-Pear1 antibodies LF11, LF15, LF16 used alone, and their combinations with pirfenidone or nintedanib respectively, and experimental groups including pirfenidone or nintedanib used alone and a control group were established. TGFβ-induced IPF fibroblasts were treated for 48 hours, and then cells were collected. The qPCR method was used to detect the effect on the synthesis of extracellular matrix proteins collagen 7a1 and matrix metalloproteinase inhibitor 1 (primers are shown in Table 1).

Cc1ccc(=O)n(-c2ccccc2)c1 [pirfenidone, reference compound]
inhibition of expression of extracellular matrix proteins (collagen 7a1, matrix metalloproteinase inhibitor 1) in IPF fibroblasts: inhibit the expression of extracellular matrix proteins in IPF fibroblasts to some extent

COC(=O)c1ccc2c(c1)NC(=O)/C2=C(\Nc1ccc(N(C)C(=O)CN2CCN(C)CC2)cc1)c1ccccc1 [nintedanib, reference compound]
inhibition of expression of extracellular matrix proteins (collagen 7a1, matrix metalloproteinase inhibitor 1) in IPF fibroblasts: inhibit the expression of extracellular matrix proteins in IPF fibroblasts to some extent

B1: LF16: anti-human Pear1 monoclonal antibody; VH SEQ ID NO: 5, VL SEQ ID NO: 20 (antibody, V domains shown)
VH: EVQLQQSGPELVKPGASMKISCKASGYAFTGYTMNWVKQSHGKNLDWIGVINGYNGGTSYNQKFKGKATLTVDKSSSTAYMELLSLTSEDSAIYYCARGGPTTGFVYWGQGTLVTVSA
VL: DIQMTQTSSSFSVSLGDRVTITCKASEDIYNRLAWYQQKPGNAPRLLISGATSLETGVPSRFSGSGSGKDYTLSITSLQTEDVATYYCQQYWSTPTFGAGTKLELK
inhibition of expression of extracellular matrix proteins (collagen 7a1, matrix metalloproteinase inhibitor 1) in IPF fibroblasts: inhibit the expression of extracellular matrix proteins in IPF fibroblasts to some extent

B2: LF15: anti-human Pear1 monoclonal antibody; VH SEQ ID NO: 4, VL SEQ ID NO: 19 (antibody, V domains shown)
VH: EVQLQQSGPELVKPGASMKISCKASGYSFTGYTMNWVKQSHGENLEWIGVINPYNGGTSYNQKFKGKATLTVDKSFSTAYMEILSLTSEDSAVYYCSRGGGNSWFAYWGQGTLVTVSA
VL: DIQMTQTSSYLSVSLGGRVTITCKASDHINNWLAWYQQKPGNAPRLLISGATSLETGVPSRFSGSGSGTDYSLTITSLQTEDVATYYCQQYWSIPTFGGGTRLEIK
inhibition of expression of extracellular matrix proteins (collagen 7a1, matrix metalloproteinase inhibitor 1) in IPF fibroblasts: inhibit the expression of extracellular matrix proteins in IPF fibroblasts to some extent

B3: LF11: anti-human Pear1 monoclonal antibody; VH SEQ ID NO: 2, VL SEQ ID NO: 18 (antibody, V domains shown)
VH: EVQLQQSGPELVKPGASMKISCKASGYSFTGYPMNWVKQTHGKNLEWIGLINPYNGGTSYNQKFKGKATLTVDKSSSTAYMELLSLTSDESAVYYCARGGVRPFDFWGQGTLVTVSA
VL: DIVITQSPAIMSASPGEKVTMTCSARSSVSYMYWYQQKPGSSPRLLIYDTSKLASGVPVRFSGSGSGTSYSLTISRMEAEDAATYFCQQWSSYPPTFGGGTKLEIK
inhibition of expression of extracellular matrix proteins (collagen 7a1, matrix metalloproteinase inhibitor 1) in IPF fibroblasts: inhibit the expression of extracellular matrix proteins in IPF fibroblasts to some extent
